As a reminder, the Km is the concentration of substrate that gives half-maximal velocity. Broadly, the kcat is the number of substrate molecules converted per active site and unit of time at saturation.

Data set [1] deals with leucyl oligopeptide of SEQ. ID. NO: 2. Briefly: Kinetic parameters of aminopeptidase, leucyl oligopeptide substrate. It counts as biochemical. To be noted: 37° C. The source says:
(§1) In order to compare substrate specificity of aminopeptidase of this invention, 2 kinds of substrate were used. In detail, one was synthetic substrates of p-nitroanilide derivative and purchased from Sigma, USA and the other was oligopeptide such as methionyl oligopeptide of SEQ. ID. NO: 1 which have amino acid sequence similar to N-terminus of methionyl HGH and leucyl oligopeptide of SEQ. ID. NO: 2. The oligopeptides of this invention were synthesized.
(§2) In addition oligopeptide was also used as substrate to perform enzyme reaction by using substrate of known concentration and aminopeptidase in buffer containing 0.1M Tris-Cl, 0.1M NaCl to make 500 μl reaction volume. The enzyme reaction was performed at 37° C. and after 5 and 10 min 250 μl of reaction mixture was adopted and added 70% acetic acid to stop the reaction. The reaction mixture was analyzed by performing HPLC chromatography.
(§3) In reaction condition mentioned above, initial velocity of enzyme reaction was measured with varying the substrate concentration. Lineweaver-Burk plot was used to determine Km value and Maximum reaction velocity of aminopeptidase from Bacillus licheniformis. In addition kcat and kcat/Km was determined by using Km value and maximum reaction velocity described above.

Data set [2] has as its system methionyl oligopeptide of SEQ. ID. NO: 1. In words: Kinetic parameters of aminopeptidase, methionyl oligopeptide substrate. The format is biochemical. Conditions: 37° C.
From the text: as §1, §2, §3

B1: Aeromonas proteolytica aminopeptidase: Aeromonas proteolytica (Vibrio prozeolytica) aminopeptidase (Korean Patent Publication NO. 94-14804), comparison enzyme (protein)
chain: MPPITQQATVTAWLPQVDASQITGTISSLESFTNRFYTTTSGAQASDWIASEWQALSASLPNASVKQVSHSGYNQKSVVMTITGSEAPDEWIVIGGHLDSTIGSHTNEQSVAPGADDDASGIAAVTEVIRVLSENNFQPKRSIAFMAYAAEEVGLRGSQDLANQYKSEGKNVVSALQLDMTNYKGSAQDVVFITDYTDSNFTQYLTQLMDEYLPSLTYGFDTCGYACSDHASWHNAGYPAAMPFESKFNDYNPRIHTTQDTLANSDPTGSHAKKFTQLGLAYAIEMGSATGDTPTPGNQ
For the molecule B1, the Km in data set [1] turned out to be 336 µM; in data set [2], 956 µM. Moreover, the kcat in data set [1] turned out to be 70.29 s⁻¹; in data set [2] it was 3.23 s⁻¹.

Source of the values: patent US6428997B1, “Aminopeptidase derived from Bacillus licheniformis and process for preparation of natural type proteins” (LG Chemical Ltd., priority 1997, dated 2002).
